Legend:
[1] = molecular target: T1, Fas receptor on human cells (Jurkat, HT-29) (human, UniProt P25445 26-335); test: cell-based or functional assay
T1 sequence (looked up): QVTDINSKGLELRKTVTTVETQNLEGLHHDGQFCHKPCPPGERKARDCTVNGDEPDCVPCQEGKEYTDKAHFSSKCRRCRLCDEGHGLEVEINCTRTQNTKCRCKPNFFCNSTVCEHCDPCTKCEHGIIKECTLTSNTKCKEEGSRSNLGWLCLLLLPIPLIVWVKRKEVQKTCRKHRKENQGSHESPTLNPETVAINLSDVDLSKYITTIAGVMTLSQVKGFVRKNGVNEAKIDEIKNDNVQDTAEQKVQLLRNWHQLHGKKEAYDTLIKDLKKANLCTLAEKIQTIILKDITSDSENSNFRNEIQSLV

[2] = molecular target: T2, Full length TNF-gamma-beta on the cell surface (human, UniProt O95150 1-251); test: flow cytometry on HEK293F cells expressing full length TNF-gamma-beta
T2 construct: whole, on cells; also called TNF-gamma-beta expressing cells
T2 sequence (looked up): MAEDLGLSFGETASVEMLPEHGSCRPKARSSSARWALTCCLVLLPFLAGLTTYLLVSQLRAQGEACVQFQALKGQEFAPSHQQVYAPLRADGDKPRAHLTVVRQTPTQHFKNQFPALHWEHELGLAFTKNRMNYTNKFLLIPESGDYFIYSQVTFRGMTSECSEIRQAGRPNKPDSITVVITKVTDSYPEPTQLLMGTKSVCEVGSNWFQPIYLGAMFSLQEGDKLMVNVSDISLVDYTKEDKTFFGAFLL

[3] = molecular target: T3, AIM-II expressed on HEK 293 EBNA cells (UniProt O43557 1-240); test: flow cytometry on AIM-II-transfected HEK 293 EBNA cells
T3 construct: whole, on cells
T3 sequence (O43557 whole entry): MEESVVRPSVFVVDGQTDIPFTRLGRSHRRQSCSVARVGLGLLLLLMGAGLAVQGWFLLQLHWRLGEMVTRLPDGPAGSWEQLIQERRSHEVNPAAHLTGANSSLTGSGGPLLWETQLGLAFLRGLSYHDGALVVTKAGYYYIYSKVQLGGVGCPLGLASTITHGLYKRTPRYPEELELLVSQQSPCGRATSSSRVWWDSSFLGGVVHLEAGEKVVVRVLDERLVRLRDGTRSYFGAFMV
Description: For detecting Fc-fusion protein, cells were stained with FITC-conjugated goat anti-human IgG. […] The cells were analyzed by FACScan (Becton Dickinson).

[4] = molecular target: T4, Murine FasL expressed on murine L929 cells (mouse, UniProt P41047 1-279); test: cell-based or functional assay
T4 sequence (looked up): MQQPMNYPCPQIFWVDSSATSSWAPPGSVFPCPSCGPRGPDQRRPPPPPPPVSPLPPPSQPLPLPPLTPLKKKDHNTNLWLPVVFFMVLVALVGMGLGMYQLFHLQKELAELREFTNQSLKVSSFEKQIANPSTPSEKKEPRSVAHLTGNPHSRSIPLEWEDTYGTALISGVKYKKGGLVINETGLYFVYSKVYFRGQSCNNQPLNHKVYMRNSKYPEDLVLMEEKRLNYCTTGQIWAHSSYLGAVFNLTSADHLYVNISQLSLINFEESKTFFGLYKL

[5] = molecular target: T2, Full length TNF-gamma-beta on the cell …; test: flow cytometry competition on TNF-gamma-beta expressing cells; competitor DR3-Fc

B1: Soluble human FLAG-FasL (synthesized at HGS) (ligand, UniProt P48023 130-281, looked up, not shown: small tags and cut ends)
chain: QIGHPSPPPEKKELRKVAHLTGKSNSRSMPLEWEDTYGIVLLSGVKYKKGGLVINETGLYFVYSKVYFRGQSCNNLPLSHKVYMRNSKYPQDLVMMEGKMMSYCTTGQMWARSSYLGAVFNLTSADHLYVNVSELSLVNFEESQTFFGLYKL
- increase in apoptotic Jurkat cells over untreated controls (annexin FACS) [1]: ~7 fold

B2: DcR1-Fc (Fc-fusion form of the extracellular domain) (Fc fusion, UniProt O14798 26-221, looked up)
chain: ATTARQEEVPQQTVAPQQQRHSFKGEECPAGSHRSEHTGACNPCTEGVDYTNASNNEPSCFPCTVCKSDQKHKSSCTMTRDTVCQCKEGTFRNENSPEMCRKCSRCPSGEVQVSNCTSWDDIQCVEEFGANATVETPAAEETMNTSPGTPAPAAEETMNTSPGTPAPAAEETMTTSPGTPAPAAEETMTTSPGTPA
notes: extracellular domain; not shown: Fc portion
- binding result [2]: no binding

B3: LTβR-Fc (Fc fusion, UniProt P36941 31-227, looked up)
chain: QAVPPYASENQTCRDQEKEYYEPQHRICCSRCPPGTYVSAKCSRIRDTVCATCAENSYNEHWNYLTICQLCRPCDPVMGLEEIAPCTSKRKTQCRCQPGMFCAAWALECTHCELLSDCPPGTEAELKDEVGKGNNHCVPCKAGHFQNTSSPSARCQPHTRCENQGLVEAAPGTAQSDTTCKNPLEPLPPEMSGTMLM
notes: also called LTbetaR-Fc; LTBR-Fc; not shown: Fc portion
- binding result [3]: binds

B4: HVEM/TR2-Fc (Fc fusion)
chain: LPSCKEDEYPVGSECCPKCSPGYRVKEACGELTGTVCEPCPPGTYIAHLNGLSKCLQCQMCDPAMGLRASRNCSRTENAVCGCSPGHFCIVQDGDHCAACRAYATSSPGQRVQKGGTESQDTLCQNCPPGTFSPNGTLEECQHQTKCSWLVTKAGAGTSSSHWV
notes: also called soluble form of HVEM/TR2-Fc; not shown: Fc portion
- binding result [3]: binds

B5: OPG-Fc (Fc-fusion form of the extracellular domain) (Fc fusion, UniProt O00300 22-194, looked up)
chain: ETFPPKYLHYDEETSHQLLCDKCPPGTYLKQHCTAKWKTVCAPCPDHYYTDSWHTSDECLYCSPVCKELQYVKQECNRTHNRVCECKEGRYLEIEFCLKHRSCPPGFGVVQAGTPERNTVCKRCPDGFFSNETSSKAPCRKHTNCSVFGLLLTQKGNATHDNICSGNSESTQK
notes: as for B2
- binding result [2]: no binding

B6: TNFR6 alpha-Fc (full length TNFR-6 alpha, amino acids 1-300 of SEQ ID NO:2, fused to an Fc domain of human IgG1) (Fc fusion, not shown: a dimerising Fc or GST)
chain: VAETPTYPWRDAETGERLVCAQCPPGTFVQRPCRRDSPTTCGPCPPRHYTQFWNYLERCRYCNVLCGEREEEARACHATHNRACRCRTGFFAHAGFCLEHASCPPGAGVIAPGTPSQNTQCQPCPPGTFSASSSSSEQCQPHRNCTALGLALNVPGSSSHDTLCTSCTGFPLSTRVPGAEECERAVIDFVAFQDISIKRLQRLLQALEAPEGWGPTPRAGRAALQLKLRRRLTELLGAQDGALLVRLLQALRVARMPGLERSVRERFLPVH
- potency relative to Fas-Fc, killing of A20 cells by murine FasL transfected L929 cells [4]: 100 fold

B7: TR6 (full-length human TNFR-6 alpha without Fc) (receptor)
chain: VAETPTYPWRDAETGERLVCAQCPPGTFVQRPCRRDSPTTCGPCPPRHYTQFWNYLERCRYCNVLCGEREEEARACHATHNRACRCRTGFFAHAGFCLEHASCPPGAGVIAPGTPSQNTQCQPCPPGTFSASSSSSEQCQPHRNCTALGLALNVPGSSSHDTLCTSCTGFPLSTRVPGAEECERAVIDFVAFQDISIKRLQRLLQALEAPEGWGPTPRAGRAALQLKLRRRLTELLGAQDGALLVRLLQALRVARMPGLERSVRERFLPVH
notes: Full-length cDNA (aa 1-300) expressed in Sf9 cells; also called TR6-non-Fc; TR6 non-Fc
- molar ratio (TR6 to DR3-Fc) at which no DR3-Fc binding was detected [5]: 2 mol/mol

— patent US20040013664A1 (published 2004)
